From patent US20240115706A1 (LG CHEM, published 2024)

T1: monkey GUCY2C-rCD4 fusion protein (Macaca fascicularis (crab-eating …, limits assumed))
T1 construct: Prepared by the same method as the human antigen; also called Cy-GUCY2C-rCD4; monkey GUCY2C recombinant antigen
T1 chain: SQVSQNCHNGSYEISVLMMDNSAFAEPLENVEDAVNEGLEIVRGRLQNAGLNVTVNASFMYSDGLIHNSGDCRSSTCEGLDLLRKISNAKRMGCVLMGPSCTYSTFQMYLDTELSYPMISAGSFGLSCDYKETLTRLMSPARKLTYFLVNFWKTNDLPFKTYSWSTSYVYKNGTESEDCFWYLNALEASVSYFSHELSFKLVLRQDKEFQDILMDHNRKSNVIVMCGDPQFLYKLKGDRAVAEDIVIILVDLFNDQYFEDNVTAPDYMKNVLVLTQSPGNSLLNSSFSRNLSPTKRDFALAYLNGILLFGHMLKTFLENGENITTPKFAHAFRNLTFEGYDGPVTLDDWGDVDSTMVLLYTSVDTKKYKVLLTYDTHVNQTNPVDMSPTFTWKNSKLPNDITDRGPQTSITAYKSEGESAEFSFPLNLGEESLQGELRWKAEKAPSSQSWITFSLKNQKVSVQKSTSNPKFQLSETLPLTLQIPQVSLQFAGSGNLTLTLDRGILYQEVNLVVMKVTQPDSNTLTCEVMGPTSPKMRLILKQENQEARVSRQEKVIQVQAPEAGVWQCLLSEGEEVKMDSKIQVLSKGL


Experiments:
[1] = target: T2, human GUCY2C-rCD4 fusion protein (Homo sapiens (human); Rattus norvegicus, biotinylated (site not given)); assay: ranking ELISA (DELFIA), 50 nM scFv on anti-FLAG, biotinylated antigen, streptavidin-Eu
T2 construct: GUCY2C conjugated/fused with CD4; also called Hu-GUCY2C-rCD4; human GUCY2C recombinant antigen
Description: (§1) More specifically, after coating an anti-FLAG antibody in a MaxiSorb plate and binding by adding scFvs obtained previously, the remaining scFvs were removed by a washing process. Here, a biotinylated human-GUCY2C-rCD4 protein was incubated and combined, and then the affinity to the antigen was measured by reading signals by DELFIA enhancement with color development through streptavidin-Europlum.

[2] = target: T3, GUCY2C on the cell surface (T84 colon carcinoma cells; HT29-GUCY2C cells) (human, UniProt P25092 24-1073); assay: flow cytometry, scFv(-Fc) at 10 ug/mL on GUCY2C-positive T84 cells, detected with IgG-Fc-PE Ab (FL2-H)
T3 construct: whole, on cells; also called GUCY2C expressing T84 cells; HT29 GCC cells
Description: (§2) Using cells naturally expressing GUCY2C, whether 18 kinds of scFvs produced in Example 1 could actually detect GUCY2C expression on the cell surface was confirmed. For this, a GUCY2C positive cancer cell, T84 colon carcinoma cell (ATCC® CCL248™) was used.
(§3) After separating the two cell lines using trypsin-EDTA, they were placed in FACS buffer (1×PBS+2% BSA). 10 ug/mL of each of the 18 kinds of scFvs and positive control group, 5F9 scFv was cultured with T84 and T-47D cells on ice for 1 hour. The scFv combined to cells was detected using 5 ug/mL IgG-Fc-PE Ab (BioLegend; 409304). The cells were cultured with ToPro®3 (live/dead stain) and then red with a flow cytometer.

[3] = target: T2, human GUCY2C-rCD4 fusion protein; assay: ELISA (DELFIA), antigen on streptavidin plate, scFv culture solution, Eu-anti-tag Ab
Description: (§4) More specifically, GUCY2C-rCD4 fusion protein, in which the prepared human GUCY2C (SEQ ID NO: 112), monkey GUCY2C (SEQ ID NO: 114), and mouse GUCY2C (SEQ ID NO: 113) were fused, respectively, was bound to a place coated with streptavidin in a Nunc Maxisorp™96 well plate. After removing all the synthetic proteins not combined with washing buffer, the anti-GUCY2C scFV obtained in the culture solution was incubated in each well. After that, the affinity was measured by reading signals DELFIA enhanced using Eu-anti-tag Ab.

[4] = target: T1, monkey GUCY2C-rCD4 fusion protein; assay: as above
Description: as §4

[5] = target: T2, human GUCY2C-rCD4 fusion protein; assay: SPR (Sierra SPR-32), scFv on protein G, antigen 800-12.5 nM, 25 C
Description: Furthermore, the affinity to the GUCY2C antigen of the 18 kinds of scFvs produced in Example 1 was measured by SPR (Surface plasmon resonance) analysis.
SPR assay was performed with association time 2 min and dissociation time 10 min under the condition of 25 degrees of Celsius using MASS2 (Sierra SPR-32; Bruker). The data were analyzed with Software R3.

[6] = target: T2, human GUCY2C-rCD4 fusion protein; assay: ranking ELISA (DELFIA), 5 nM scFv on anti-FLAG, biotinylated antigen, streptavidin-Eu
Description: as §1

[7] = target: T2, human GUCY2C-rCD4 fusion protein; assay: ranking ELISA (DELFIA), 5 nM scFv on anti-FLAG, biotinylated antigen, streptavidin-Eu; affinity ranking ELISA, 5 nM: binds
Description: as §1

[8] = target: T2, human GUCY2C-rCD4 fusion protein; assay: ranking ELISA (DELFIA), 50 nM scFv on anti-FLAG, biotinylated antigen, streptavidin-Eu; affinity ranking ELISA, 50 nM: binds
Description: as §1

[9] = target: T2, human GUCY2C-rCD4 fusion protein; assay: ELISA (DELFIA), antigen on streptavidin plate, scFv culture solution, Eu-anti-tag Ab; binding ELISA, Hu-GUCY2C-rCD4 antigen: binds
Description: as §4

[10] = target: T3, GUCY2C on the cell surface (T84 colon …); assay: flow cytometry on T84 cells, median MFI on live singlet cells (IgG-Fc-PE signal), scFv(-Fc) at 10 ug/mL
Description: as §2, §3

| Binder | Affinity Ranking ELISA (50 nM) signal [1] | binding result [2] | Binding ELISA signal [3] | Binding ELISA signal [4] | Kd [5] [nM] | Affinity Ranking ELISA (5 nM) signal [6] | Affinity Ranking ELISA (5 nM) signal [7] | Affinity Ranking ELISA (50 nM) signal [8] | Binding ELISA signal [9] | binding result [10] |
| --- | --- | --- | --- | --- | --- | --- | --- | --- | --- | --- |
| scFv B12 (scFv, also called 2437_02_G10) scFv: QVQLVESGGGLVKPGGSLRLSCAASGFTFSSYSMNWVRQAPGKGLEWVSVIYSGGSTHYADSVKGRFTISRHNSKNTLYLQMNSLRAEDTAVYYCARGAGTLNAFDIWGQGTTVTVSSGGGGSGGGGSGGGASQSGLTQPPSTSGSPGQSVTISCTGTSSDVGAYSYVSWYQQHPGKAPKLLIYAVTKRPSGVPDRFSGSKSGNTASLTVSGLQDEDEADYYCSSFAGGSTLVFGGGTKLTVL | 77100 | binds | 30900 | 22100 | 4540 | 9590 |  |  |  |  |
| scFv A01 (scFv, also called 2426_01_A02) scFv: QVQLVQSGAEVKKPGASVKVSCKASGYTFTSYYMHWVRQAPGQGLEWMGIINPSGGSTSYAQEFQGRVTMTRDTSTSTVYMELSSLRSEDTAVYYCARDGQWLQFDYWGQGTLVTVSSGGGGSGGGGSGGGASDIVMTQSPLSLPVTLGQPASISCRSSQSLLKKSDGNTYLSWYHQRPGQSPRRLIYKVSNRDSGVPDRFSGSGSDTDFTLKISRVETEDVGIYYCMQGSHWPPTFGQGTKVEIK |  |  |  | 28100 |  |  | 13800 | 104000 | 30200 |  |
| scFv B08 (scFv, also called 2436_02_F11) scFv: EVQLVQSGAEVKKPGSSVKVSCKASGGTFSSYAISWVRQAPGQGLEWMGGIIPIFGTANYAQKFQGRVTITADKSTSTAYMELSSLRSEDTAVYYCARGHYYYMDVWGQGTTVTVSSGGGGSGGGGSGGGASDIVMTQSPATLSVSPGEGATLSCRASQSVSSNLAWYQQKPGRAPRLLIYGASTRATGIPARFSGSGSGTEFTLTISSLQSEDFAVYYCQQYNNWPSFGGGTKLEIK |  |  |  |  |  |  | 23300 | 153000 | 61100 |  |
| scFv B01 (scFv, also called 2433_01_H07; H07) scFv: EVQLVQPGAEVKKPGSSVKVSCKASGGTLSSYAISWVRQAPGQGLEWMGRIIPILGITNYAQKFQGRVTITADKSTSTAYMELSSLRSEDTAVYFCARDQRPASMDVWGQGTLVTVSSGGGGSGGGGSGGGASQSGLTQPASVSGSPGQSITISCTGTSSDVGGYNYVSWYQQHPGKAPKLMIYEVSNRPSGVSNRFSGSKSGNTASLTISGLQAEDEADYYCSTVTSLSTYVFGTGTKLTVL | 133000 | binds | 39400 | 4490 | 335 | 26200 |  |  |  |  |
| scFv A08 (scFv, also called 2432_01_D05) scFv: EVQLLESGGGLVQPGGSLRLSCAASGFTFSSYWMSWVRQAPGKGLEWVANIKQDGSEKYYVDSVKGRFTISRDNAKNSLYLQMNSLRAEDTAVYYCAKAPWYSSSPTPYGMDVWGQGTLVTVSSGGGGSGGGGSGGGASDIQMTQSPSSLSASVGDRVTITCQASQDISNYLNWYQQKPGKAPRRLIYGASTLMSGVPSRFSGSGSGTDFTLTISSLQPEDFATYYCQQSYSTPLTFGGGTKVEIK |  |  |  |  |  |  | 8700 | 54800 | 58100 |  |
| scFv B11 (scFv, also called 2437_02_G07; G07) scFv: QVQLVESGAEVKKPGSSVKVSCKASGGTFSSYAISWVRQAPGQGLEWMGGIIPIFGTANYAQKFQGRVTITADESTSTAYMELSGLRSEDTAVYYCARGIQPLRYYGMDVWGQGTLVTVSSGGGGSGGGGSGGGASQSALTQPPSASGTPGQRVTISCSGSSSNIGSNYVYWYQQLPGTAPKLLIYRNNQRPSGVPDRFSGSKSGTSASLAISGLRSEDEADYYCAAWDDSLSGRGVFGGGTQLTVL | 89600 |  | 37500 | 23600 | 1330 | 14800 |  |  |  | binds |
| scFv C07 (positive control), 5F9 scFv (scFv, also called 5F9 scFv-Fc) scFv: EIVMTQSPATLSVSPGERATLSCRASQSVSRNLAWYQQKPGQAPRLLIYGASTRATGIPARFSGSGSGTEFTLTIGSLQSEDFAVYYCQQYKTWPRTFGQGTNVEIKASGGGGSGGGGSGGGGSGGGGSELQVQLQQWGAGLLKPSETLSLTCAVFGGSFSGYYWSWIRQPPGKGLEWIGEINHRGNTNDNPSLKSRVTISVDTSKNQFALKLSSVTAADTAVYYCARERGYTYGNFDHWGQGTLVTVSS | 184000 | binds | 83900 | 49200 | 15 | 133000 |  |  |  |  |
